{
  "source": "paper PMC9328677",
  "about": "(2021)",
  "binders": {"B1": {"name": "APLF^AD double anchor mutant Y462A/F468A (DA-34) (domain or fragment)", "chain": "DEDNDNVGQPNEADLNDSALDDEEEDYEPTDEDSDWEPGKEDEEKEDVEELLKEAKRFMKRK"}, "B2": {"name": "APLF^AD mutant of Y462 tested by ITC on H3-H4 (domain or fragment)", "chain": "B1 chain with A19F"}, "B3": {"name": "APLF^AD F468A (protein)", "chain": "B1 chain with A13Y"}, "B4": {"name": "acidic domain of Homo sapiens APLF (APLF^AD, residues 450 to 511), wild type (domain or fragment)", "chain": "B1 chain with A13Y, A19F"}, "B5": {"name": "APLF^AD double anchor mutant Y476A/W485A (DA-AB) (domain or fragment)", "chain": "B1 chain with A13Y, A19F, Y27A, W36A"}, "B6": {"name": "SUMO-APLF^AD quadruple anchor mutant Y462A/F468A/Y476A/W485A (QA) (domain or fragment)", "chain": "B1 chain with Y27A, W36A"}},
  "note": "Positions count from the first letter of the chain named. Names and notes keep the numbering of the source.",
  "data": [
    {"target": "T1, Drosophila melanogaster histone H3-H4 complex, full-length (Drosophila melanogaster, UniProt P02299 1-136; P84040 1-103)", "experiment": "ITC", "units": {"Kd": "nM"}, "values": [
      {"binder": "B1", "Kd": 7630},
      {"binder": "B2", "Kd": 3090},
      {"binder": "B3", "Kd": 980},
      {"binder": "B4", "Kd": 790},
      {"binder": "B5", "Kd": 2050}
    ]},
    {"target": "stoichiometric mixture of full-length Drosophila melanogaster H2A-H2B and H3-H4 (octamer-mix) (Drosophila melanogaster, UniProt P84051 1-124; P02283 1-123; P02299 1-136; P84040 1-103)", "experiment": "ITC", "units": {"Kd": "nM"}, "values": [
      {"binder": "LDEDNDNVGQPNEADLNDSALDDEEEDAEPTDEDSDAEPGKE (domain or fragment)", "note": "[SUMO-APLF^AD truncated QA mutant (QA-Δ, residues 449 to 490)]", "Kd": 1220},
      {"binder": "GLDEDNDNVGQPNEYDLNDSFLDDEEEDYEPTDEDSDWEPGKE (domain or fragment)", "note": "[truncated APLF^AD construct corresponding to residues 449 to 490 (APLF^AD-Δ)]", "Kd": 90},
      {"binder": "B1", "Kd": 671},
      {"binder": "B6", "Kd": 794},
      {"binder": "B5", "Kd": 317}
    ]},
    {"target": "T1, Drosophila melanogaster histone H3-H4 …", "experiment": "ITC", "remark": "another data set of the same source", "units": {"Kd": "nM"}, "values": [
      {"binder": "B4", "Kd": 552}
    ]}
  ]
}
